Data published in patent US20230212239A1, “INHIBITORS OF CBL AUTOINHIBITION AND RELATED METHODS” (THE HOSPITAL FOR SICK CHILDREN, priority 2020, published 2023).

T1: CBL TKBD (Homo sapiens, UniProt P22681)
T1 construct: with CBL (47-357) cloned in frame into MCS2 of the same pETDuet-1 vector; made in house
T1 sequence (P22681 47-357): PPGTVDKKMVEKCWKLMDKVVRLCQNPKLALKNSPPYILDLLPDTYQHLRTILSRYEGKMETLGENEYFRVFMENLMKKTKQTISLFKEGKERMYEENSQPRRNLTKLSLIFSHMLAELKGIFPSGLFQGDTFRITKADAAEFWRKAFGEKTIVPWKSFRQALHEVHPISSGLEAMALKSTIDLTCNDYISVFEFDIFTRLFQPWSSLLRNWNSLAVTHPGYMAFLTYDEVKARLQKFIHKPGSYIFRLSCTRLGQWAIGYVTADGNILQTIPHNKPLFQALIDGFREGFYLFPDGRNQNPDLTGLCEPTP

T2: CBL (47-357) S226E (UniProt P22681 47-357)
T2 construct: range 47-357; Point mutant within Duet-His-Δlinker-hSLAP2-CBL; also called S226E (CBL mutant)
T2 sequence (looked up): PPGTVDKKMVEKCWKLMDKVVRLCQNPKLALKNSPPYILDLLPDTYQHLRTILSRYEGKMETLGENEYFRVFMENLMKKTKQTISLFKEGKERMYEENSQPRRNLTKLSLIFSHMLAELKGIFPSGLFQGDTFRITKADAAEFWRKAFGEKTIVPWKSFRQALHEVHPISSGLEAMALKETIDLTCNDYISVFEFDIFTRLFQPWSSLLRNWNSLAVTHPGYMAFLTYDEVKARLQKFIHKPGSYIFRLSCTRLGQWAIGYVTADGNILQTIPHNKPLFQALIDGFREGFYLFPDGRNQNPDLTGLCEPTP


How the values were obtained:
CBL TKBD = biological target: T1, CBL TKBD; assay: Co-purification of CBL TKBD with Trx-His-SLAP2/SLAP (Duet co-expression, Ni-NTA, SDS-PAGE); assay type: binding
Text: To validate the CBL/SLAP2 binding interface, a series of mutants in a Duet co-expression vector system was generated for co-purification trials. The SLAP2 sequence was preceded by thioredoxin (Trx) and His-tag fusion proteins to allow co-purification of CBL TKBD that was bound to Trx-His-SLAP2 during the initial affinity chromatography purification step. Surface residues deemed to be important to the CBL/SLAP2 interface, but not CBL function or folding, were mutated to disrupt CBL/SLAP2 binding (FIG. 5C and FIG. 6). In our structure, SLAP2 Gly240 locates close to CBL Met269 and Ala270, such that mutation to a bulky Arg residue (G240R) could cause sterical constraints. Similarly, SLAP2 Leu241 is situated in a hydrophobic cleft composed of CBL Ala223, Trp258, and Val263; mutation to Arg (L241R) was predicted to disturb this binding pocket. Mutation of CBL Ala223 to Arg (A223R) would likewise disrupt this pocket, with CBL/SLAP2 double mutant A223R/L241R predicted to drastically disturb binding through sterical constraints and charge repulsion. (For clarity, CBL mutations herein are indicated in italics, SLAP2 in regular font.) Similarly, single or double mutation of CBL Ser226 or SLAP2 Ser244, whose side chain hydroxyl groups are in close proximity to one another, to charged Glu residues (S226E and S244E) was anticipated to interfere with CBL/SLAP2 binding. Finally, given that SLAP2 binds CBL as an α-helix, mutation of Leu245, located in the center of this α-helix, to proline (L245P) was expected to interrupt the helical structure and thus prevent SLAP2 binding. […] However, double mutation of the CBL/SLAP2 interface (A223R/L241R and S226E/S244E; FIG. 5D, lower panel) was not tolerated, even at low salt concentration.
For co-purification of CBL and SLAP2/SLAP, Duet-His-hSLAP2-CBL 29-261 Δ198-229 and 29-254 Δ198-229, Duet-His-Δlinker-hSLAP2-CBL WT and point mutants, and Duet-His-mSLAP-CBL WT and point mutants were overexpressed in E. coli BL-21 as above or TKB1 competent cells (Stratagene) as per manufacturer’s instructions, and cells harvested as above (except 100 mL of LB, overnight at 16-18° C., and 0.35-0.5 mM IPTG induction). Cell pellets were resuspended in either high or low salt (as for high salt except 25 mM HEPEs pH 7.5, 150 mM NaCl) lysis buffer and purified as above on Ni-NTA agarose (Qiagen) with wash buffer (25 mM HEPEs pH 7.5, 150 mM NaCl, 2% glycerol, 20 mM imidazole, 10 mM βME). Bead slurry was mixed with SDS 2X loading buffer (125 mM Tris pH 6.8, 4% SDS, 20% glycerol, 0.715 M βME, bromophenol blue), boiled, and analyzed by 10 or 12.5% SDS-PAGE, stained with Coomassie blue.

CBL (47-357) S226E = biological target: T2, CBL (47-357) S226E; assay: Ni-NTA co-purification from Duet co-expression, high salt (0.5 M NaCl), Coomassie SDS-PAGE
Description: Cell pellets were resuspended in either high or low salt (as for high salt except 25 mM HEPEs pH 7.5, 150 mM NaCl) lysis buffer and purified as above on Ni-NTA agarose (Qiagen) with wash buffer (25 mM HEPEs pH 7.5, 150 mM NaCl, 2% glycerol, 20 mM imidazole, 10 mM βME). Bead slurry was mixed with SDS 2X loading buffer (125 mM Tris pH 6.8, 4% SDS, 20% glycerol, 0.715 M βME, bromophenol blue), boiled, and analyzed by 10 or 12.5% SDS-PAGE, stained with Coomassie blue.

CBL TKBD co-purification (CBL TKBD; conditions where SLAP2 was tyrosine phosphorylated (TKB1), low salt) | binding result (CBL (47-357) S226E) | CBL TKBD co-purification (CBL TKBD; high salt conditions (0.5 M NaCl)) | Molecule
co-purified |  |  | pSLAP2: tyrosine phosphorylated SLAP2 expressed in TKB1 cells (protein, UniProt Q9H6Q3 2-261, looked up, tyrosine phosphorylated, tyrosine phosphorylated SLAP2 expressed in TKB1 cells) Src-like-adapter 2: GSLPSRRKSLPSPSLSSSVQGQGPVTMEAERSKATAVALGSFPAGGPAELSLRLGEPLTIVSEDGDWWTVLSEVSGREYNIPSVHVAKVSHGWLYEGLSREKAEELLLLPGNPGGAFLIRESQTRRGSYSLSVRLSRPASWDRIRHYRIHCLDNGWLYISPRLTFPSLQALVDHYSELADDICCLLKEPCVLQRAGPLPGKDIPLPVTVQRTPLNWKELDSSLLFSEAATGEESLLSEGLRESLSFYISLNDEAVSLDDA
 | no binding | co-purified | Trx-His(6)-Δlinker-hSLAP2 (human SLAP2 29-261) (other, also called Trx-His-SLAP2; SLAP2 WT; not shown: N-terminal thioredoxin (Trx)-His(6)-TEV-site tag and linker of the modified pET32a (Δlinker version)) EAERSKATAVALGSFPAGGPAELSLRLGEPLTIVSEDGDWWTVLSEVSGREYNIPSVHVAKVSHGWLYEGLSREKAEELLLLPGNPGGAFLIRESQTRRGSYSLSVRLSRPASWDRIRHYRIHCLDNGWLYISPRLTFPSLQALVDHYSELADDICCLLKEPCVLQRAGPLPGKDIPLPVTVQRTPLNWKELDSSLLFSEAATGEESLLSEGLRESLSFYISLNDEAVSLDDA
